Test results taken from PMC4669440.

Assay: micro-CT of femur
Details: glycan lost; control: WT mice

B1: Dentin matrix protein 1 (DMP1): S89G (protein)
parent chain: MKTVILLVFLWGLSCALPVARYHNTESESSEERTGDLAGSPPPPTNSESSEESQASPEGQANSDHTDSSESGEELGYDRGQYRPAGGLSKSTGTGADKEDDEDDSGDDTFGDEDNDLGPEEGQWGGPSKLDSDEDSTDTTQSSEDSTSQENSAQDTPSDSKDHDSEDEADSRPEAGDSTQDSESEEQRVGGGSEGESSHGDGSEFDDEGMQSDDPESTRSDRGHARMSSAGIRSEESKGDHEPTSTQDSDDSQSVEFSSRKSFRRSHVSEEDYRGELTDSNSRETQSDSTEDTASKEESRSESQEDTAESQSQEDSPEGQDPSSESSEEAGEPSQESSSESQEGVTSESRGDNPDNTSQAGDQEDSESSEEDSLNTFSSSESQSTEEQADSESNESLSLSEESQESAQDGDSSSQEGLQSQSASTESRSQESQSEQDSRSEEDSDSQDSSRSKEESNSTGSASSSEEDIRPKNMEADSRKLIVDAYHNKPIGDQDDNDCQDGY
- other: bone material density: increases
